Test results as given in article PMC9054839.
Values belong to the substance of their own block, whether it stands above or below them.

Tests used:
[1] = target: kindlin-2 (endogenous, fibroblasts) [mouse (endogenous in talin^1/2dko fibroblasts)]; test: anti-GFP immunoprecipitation, western blot quantification; settings: talin1/2dKO fibroblasts, N = 3; parent: 1; read off a plot
[2] = target: constitutively activated full-length talin mutant tlnM3 (M319A, T1767L, E1770K) (mouse) (UniProt P26039); test: SPR; tlnM3 amine-coupled to CM5, tlnM3 flowed over; 150 mM salt, pH 6.8, 25 °C; intermolecular tlnM3/tlnM3 interaction (dimerization)
[3] = target: GST-integrin beta3 cytoplasmic tail (UniProt P05106); test: SPR; GST-integrin beta3CT amine-coupled to CM5, talinH or tlnM3 (0–125 nM) flowed over; 50 mM sodium phosphate pH 6.8, 150 mM NaCl, 0.05% Tween 20, 0.03% BSA, 25 °C
paxillin 1–160 (human) = paxillin 1–160 (human) (UniProt P49023); test: SPR; paxillin 1–160 amine-coupled to CM5, talin subdomains (0–12 μM) flowed over; 50 mM sodium phosphate pH 6.8, 150 mM NaCl, 25 °C; talin-R1–R4 fitted by a two-state model
Chain of paxillin 1–160 (human) (P49023 1-160): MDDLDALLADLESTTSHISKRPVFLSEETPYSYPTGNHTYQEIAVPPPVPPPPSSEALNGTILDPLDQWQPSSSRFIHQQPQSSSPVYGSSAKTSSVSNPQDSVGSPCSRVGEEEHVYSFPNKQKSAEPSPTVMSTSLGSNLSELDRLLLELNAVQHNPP

Chain of GST-integrin beta3 cytoplasmic tail (P05106 742-788): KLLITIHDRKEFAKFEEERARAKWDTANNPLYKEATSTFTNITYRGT

Substance: C-terminally ypet-tagged full-length talin WT mutant A680E; K687E; T2126E; K2133E [mouse] / kindlin-2 (endogenous, fibroblasts) [mouse (endogenous in talin^1/2dko fibroblasts)] chain 1 A680E, chain 1 K687E, chain 1 T2126E, chain 1 K2133E
ratio to parent [1]: 0.31

Substance: constitutively activated full-length talin mutant tlnM3 (M319A, T1767L, E1770K), P26039 1-2541
Kd [2]: 1820 nM

Substance: talin N-terminal head domain (talin-H) (domain or fragment)
Kd [3]: 29.7 nM

Substance: talin deletion mutant without C-terminal dimerization domain (from UniProt P26039 1-2482) (domain or fragment)
Kd [3]: 36 nM

Substance: talin-R1–R4 (domain or fragment)
Kd (paxillin 1–160 (human)): 153 nM
stoichiometry N (paxillin 1–160 (human)): 1

Second part, the substance after the results:

ratio to parent [1]: 0.49
Substance: C-terminally ypet-tagged full-length talin WT mutant A680E; K687E [mouse] / kindlin-2 (endogenous, fibroblasts) [mouse (endogenous in talin^1/2dko fibroblasts)] chain 1 A680E, chain 1 K687E

ratio to parent [1]: 0.81
Substance: C-terminally ypet-tagged full-length talin WT mutant T2126E; K2133E [mouse] / kindlin-2 (endogenous, fibroblasts) [mouse (endogenous in talin^1/2dko fibroblasts)] chain 1 T2126E, chain 1 K2133E

Kd (paxillin 1–160 (human)): 12700 nM
Substance: talin-R11 (domain or fragment)
